Test results from PMC12117459.

How the values were obtained:
Experiment in all cases: NMR
His31 = His31 (UniProt position 31, TIGIGHLLTKS); conditions: cited from earlier work
Lys53 = conditions: 25 °C; <60 mM (no added salt; only HCl/NaOH used for pH adjustment); none (water without buffer); folded dimer, free protein, about 1.5 mM
Tyr16 = conditions: 25 °C; <60 mM (no added salt; only HCl/NaOH used for pH adjustment); none (water without buffer); folded dimer, free protein, about 1.5 mM
Lys56 = conditions: 25 °C; <60 mM (no added salt; only HCl/NaOH used for pH adjustment); none (water without buffer); folded dimer, free protein, about 1.5 mM
Lys6 = conditions: 25 °C; <60 mM (no added salt; only HCl/NaOH used for pH adjustment); none (water without buffer); folded dimer, free protein, about 1.5 mM
Lys12 = conditions: 25 °C; <60 mM (no added salt; only HCl/NaOH used for pH adjustment); none (water without buffer); folded dimer, free protein, about 1.5 mM
Tyr47 = conditions: folded dimer
Lys55 = conditions: 25 °C; <60 mM (no added salt; only HCl/NaOH used for pH adjustment); none (water without buffer); folded dimer, free protein, about 1.5 mM
Tyr5 = conditions: 25 °C; <60 mM (no added salt; only HCl/NaOH used for pH adjustment); none (water without buffer); folded dimer, free protein, about 1.5 mM
Lys45 = conditions: 25 °C; <60 mM (no added salt; only HCl/NaOH used for pH adjustment); none (water without buffer); folded dimer, free protein, about 1.5 mM
Lys30 = conditions: 25 °C; <60 mM (no added salt; only HCl/NaOH used for pH adjustment); none (water without buffer); folded dimer, free protein, about 1.5 mM
Lys32 = conditions: 25 °C; <60 mM (no added salt; only HCl/NaOH used for pH adjustment); none (water without buffer); folded dimer, free protein, about 1.5 mM

Substance | pKa (His31) | pKa (Lys53) | pKa (Tyr16) | pKa (Lys56) | pKa (Lys6) | pKa (Lys12) | pKa (Tyr47; 25 °C, <60 mM (no added salt; only HCl/NaOH used for pH adjustment), none (water without buffer), free protein, about 1.5 mM) | pKa (Tyr47; cited from earlier work) | pKa (Lys55) | pKa (Tyr5) | pKa (Lys45) | pKa (Lys30) | pKa (Lys32)
T4 lysozyme (Enterobacteria phage T4 (Tequatrovirus T4)) | 9 | – | – | – | – | – | – | – | – | – | – | – | –
Ribbon-helix-helix (rhh) protein ORF56 from plasmid pRN1 (Sulfolobus islandicus (plasmid pRN1)) | – | 10.25 ± 0.02 | 9.85 ± 0.01 | 10.96 ± 0.03 | 10.79 ± 0.01 | 10.54 ± 0.01 | >13.7 | above pH 13 | 11.08 ± 0.04 | 9.85 ± 0.01 | 11.27 ± 0.02 | 10.86 ± 0.01 | 10.48 ± 0.01
